Test results reported in the nanobody polyreactivity screen of Harvey et al. (2022).

Experiment: yeast display, Sf9 membrane polyspecificity reagent, FACS + sequencing; frameworks hold sequencing errors
How it was run: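 Genes from sorted yeast were amplified by colony PCR, read by MiSeq 2 × 250 sequencing and filtered on CDR length. These cells carried a synthetic nanobody library in Saccharomyces cerevisiae BJ5465 and were sorted by FACS into low and high (top ~1%) gates on anti-HA and streptavidin fluorescence. Polyreactivity is labelled according to the gate of origin.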

Sequence	polyreactivity (PSR sort gate)
QVQLVESGGGLVQAGGSLRLSCDASGSIFTPYAMGWYRQAPGKERELVAAINWNGGRTYYADSVKGRFTISRDNAKNRVYLQMNCLKPEDTAVYYCFLYYWANYPYNYWGQGTQVNVSS	low polyreactivity
QVQLVESGGGLVQAGGSLRLSCDASGSIFYDNAKGWYRQAPGKERELVATIRGGGNTYYADSVKGRFTISRDNAKNTVYLQMNSLKPEDTAVNYCAKQSDFPVVPLVYGVYGYDYWGQGTQVTVSS	low polyreactivity
QVQLVESGGGLVQAGGSLRLSCDASGSIFYGYAMGWYRQAPGKERELVASITGSGGSTSYADSVKGRFTISRDNAKKTVYLQMNSLKPEDTAVYYCNTVLLQLYKLASGFDYWGQGTQVTVSS	high polyreactivity
QVQLVESGGGLVQAGGSLRLSCDASGSIIGFYAMVWYRQAPGKERELVASISSSGDSTYYADSVKGRFTFSRDIAKNTVYLQMNSLIPEDTAVYYCAAVVYDIYGYEFDYWGQGTQLTVSS	low polyreactivity
QVQLVESGGGLVQAGGSLRLSCDASGSILPGYAMGWYRQEPGKEMELVAAISYRGTSTYYADSVKGRFTISRDNAKNTFYLQMNSLKPEDTAVYYCAAGGSWFRYPPSMDYWGQGTQVTVSS	high polyreactivity
QVQLVESGGGLVQAGGSLRLSCDASGSTFGTYAMGWYRQAPGKERELVATITYRGGSTNYADSVKGRFTISRDNAKNTVYLQMISLKPEDTAVYYCAADYFSQLAGIFDYWGLGTQVTVSS	low polyreactivity
QVQLVESGGGLVQAGGSLRLSCDASGSTFRSYAMGWYRQAHGKERELVASISGRGGSTYYADSVKGRFTISRDNAKNTVYLQMNSLKPEDTAVYYCAKRYRVSYYPYADPYGYWGQGTQVTVSS	low polyreactivity
QVQLVESGGGLVQAGGSLRLSCDASGSTFSYYAMGWYRQAPGKERDLVAAISSSGVRTYYADSVKGRFTISRDNAKNTVYLQMNSQKPEDTAVYYCAAGSRRGWLYRNRLWADYDYWGQGTQVTVSS	high polyreactivity
QVQLVESGGGLVQAGGSLRLSCDASGSTFVHYAMGWYRQAPGKERQLVAAISSSGDSTYYADSVKGRFTISRDNAKNTVYLKMNSLKPEDTAVYYCAVRSRTPRAYYYWGQGTQVTVSS	low polyreactivity
QVQLVESGGGLVQAGGSLRLSCDASGSTRIYAMGWYTQAPGKERELVAAISWTGGRTYYADSVKGRFTISRDNAKYTVYLQMNSLKPEDTAVYYCAAKGSGRDYWGQGTLVTVSS	high polyreactivity
QVQLVESGGGLVQAGGSLRLSCDASGSTSYLYAMGCYRQAPGKARELVAAIPWRSVRTSYADSVKGRFTFSRDNAKNTVYLQMNSLKPEDTAVYYCNAVGYTRGRSTYDYWGQGTQVTVSS	high polyreactivity
QVQLVESGGGLVQAGGSLRLSCDASGYTFRRYAMGWYIQAPGKEREMVAAITNSGGSTYYADSVKGRFTISRDNAKNTVYLQMNSLKPEDTAVYYCVALRSAGAYDYWGQGTQVTVSS	low polyreactivity
QVQLVESGGGLVQAGGSLRLSCDASVSIFQPYAMGWYRQAPGKERELVAAISSSGGSTTYADSVKGRFTISRDNAKNTVYLQMKSLKPEDTAVYYCAADSADDMGYWGQGTQVTVSS	low polyreactivity
QVQLVESGGGLVQAGGSLRLSCDCSGRIFKRYDMGWYRQAPGKERELVAAITGTGGSTYYADSVKGRFTISRDNAKNTVYLQMNSLKPEDTAVYYCAARLYNTYSGFAFGYWGQGTQVTVSS	high polyreactivity
QVQLVESGGGLVQAGGSLRLSCDDSGGIFGFYSMGWYRQAPGKERELVAAISGDGGSTYYADSVKGRFTISRDNATNTVYLQMNSLKPEDTAVYYCTAAFFTEYYQGDYWGQGTQVTVSS	low polyreactivity
QVQLVESGGGLVQAGGSLRLSCDDSGSTFVINDMGWYRQAPGKERELVAAITWGSGSTSYADSVKGRCTISRDNAKNTVYGQMISLKPEDTEVYYCAADVYLGLFGYYAEYNDYWGQGTQVTVSS	low polyreactivity
QVQLVESGGGLVQAGGSLRLSCGASGFTFQNYAMGWYRQARGKERELVAAIDSRGGRTYYADSVKGRFTISRDNAKNTVYLQMNSLKPEDTSVYYCAVAENKRCGAVGYYYWGQGTQVTVSS	low polyreactivity
QVQLVESGGGLVQAGGSLRLSCGASGGIFIFYAMGWYRHAPGKERELVAAISNVSSTNYADSVKGRFTISRDNAKHTVYLEMNSLKPEDTAVYYCNAVGVPSEYYSWGQGTQVTVSS	low polyreactivity
QVQLVESGGGLVQAGGSLRLSCGASGGTFVSNAMGWYRQAPGKERELVAAITSGCNTTYADSVKGRFTISRDNAKNTVYLQMNSLKPEDTAVYYCATDFEGSWIDARGTWYYVWFGYWGQGTQVTVSS	low polyreactivity
QVQLVESGGGLVQAGGSLRLSCGASGRIFATNAMGWYRQAPGKERELVATITRSAGRTYYADSVKGRFTISRDNAKNTVYLQMNSLIPEDTAVYYCAASYLDSEPGYREYDYWGQGTQVTVSS	low polyreactivity
QVQLVESGGGLVQAGGSLRLSCGASGRIFGYNAMGWYRQARGKERELVAAITTSGGSTYYADSVKGRFTLSRDNEKNTVYFQMNSLKQEDTAVYYCARDSLQVFYPYASDDYWGLGTQVTVSS	low polyreactivity
QVQLVESGGGLVQAGGSLRLSCGASGRTFGHYDLGLYRQEPGTEREFVANIRQSTGSTDYADSVKGRFTISRDNAKITVYLQMNSLKPEDTEVYYCASPWYYYVEHRQGSYILDYWGQGTQVTVSS	low polyreactivity

Sequence	polyreactivity (PSR sort gate)
QVQLVESGGGLVQAGGSLRLSCGASGRTFRKYAMGWYRQAPGKERELVASITYSGGSTYYADSVKGRFTISRDNAKNTVYLQMNSLKPEDTAVYYCAARLHWNRYPQTLYDYWGLGTQVTVSS	high polyreactivity
QVQLVESGGGLVQAGGSLRLSCGASGRTFRRYAIGWYRQAPGKERELVATITSNGGSTYYADSVKGRFTISRDNAKNTVDLQLNSLTPEDTAVYYCARDLTYYRSRYDYWGQGTQVTVSS	high polyreactivity
QVQLVESGGGLVQAGGSLRLSCGASGRTFYSYAMGWYRQEHGKERELVATITNGDTTNYADSVKGRFTISRDNAKNTVYLQMNSLKQEDTAVYYCAKDISPGYDEYDYWGQGTQVTVSS	low polyreactivity
QVQLVESGGGLVQAGGSLRLSCGASGSIFRYYTMGWYRQAPGKERELVAAISRSGGSTYYADSVKGRFTISRDNAKNTVYLQMNRLKPEDTAVYYCAARSGYIYEYWGQGTQVTVSS	high polyreactivity
QVQLVESGGGLVQAGGSLRLSCGASGSTFIYYVMGWYRQAPGKEREWVASISTGGRTYYADSVKGRFTSSRDNANHPVYVQMHSLKPEETAVDSCAGAIRSFRRPALYYWGQGTQVTVSS	high polyreactivity
QVQLVESGGGLVQAGGSLRLSCGASGSTFWYYAMGWYRPAPGKERELVAAISSRGGSTYYADSVKGRFTISRDKAKNTVYFQLNSLKPEDTAVYYCAILGSYGGGQRRKYDSWGQGTQVTVSS	high polyreactivity
QVQLVESGGGLVQAGGSLRLSCPACGRTFNRYAMGWYRQAPGKERELVATISNSGRTYYADSVKGRFTISRDNAKNTVYLQMNSLKPEDTAVYYCAAQLPSYYKYPRHDYWGKGTQVTVSS	high polyreactivity
QVQLVESGGGLVQAGGSLRLSCPASGFIFRYYAMGWYRQAPGKERELVAAISWSGGSTNYADSVKGRFTISRDNAQNTVYLQINSLKPEDTALSYCADDGTVRSWGRYYHWGQGTQVTVSS	low polyreactivity
QVQLVESGGGLVQAGGSLRLSCPASGFTLHSYAMGWYRQAPGKERELVAAITRSGGGTYYADSVKGRFTISRDNAKNTVYLQMNSLKPEDTAVYYCAARFGGQYQHDYWGQGTQVTVSS	high polyreactivity
QVQLVESGGGLVQAGGSLRLSCPASGGNFPFNGMGWSRQAPGKERELVAAISSGGRTYYADSVKGRFTISRDNAKNTVYLQMNSLKPEDTAVYYCAARTSRYYYYPYAFYWGQGTQVTVSS	high polyreactivity
QVQLVESGGGLVQAGGSLRLSCPASGLIFNSYAMGWYRQARGTERELVAAISRHGGITYYADSVKGRFTISRDHAKNTVYLQMNSLKPEDTAVYYCNADSSRRRYSSDYWGQGTQVTVSS	high polyreactivity
QVQLVESGGGLVQAGGSLRLSCPASGRIFHRNTMGWYRPAPGKERELVAAIRSGSRTYYADSVKGRFTISRDNAKNTVYLQMNSLKPEDKAVYYCATTYGSPRYDYWGQGTQVTVSS	high polyreactivity
QVQLVESGGGLVQAGGSLRLSCPASGRIFQLYAMGWYRQAPGKERELVAAIRYSGDSTYYADSVKGRLTISRDNAKNTVYLQLNSLKPEDTAVYYCAARSRYGYRNKYEYWGQGTQVTVSS	high polyreactivity
QVQLVESGGGLVQAGGSLRLSCPASGRTFGDYAMGWYRQAPGKERELVAAISSSGGRTYYADSVKGRFTISRDNAKNTVYLQMNSLKPEDTAVYYCAAQSKYYQYYSWGQGTQVTVSS	high polyreactivity
QVQLVESGGGLVQAGGSLRLSCPASGRTFGIYAMGWYRQAHGKERELVAAITWSGDSTYYADSVKGRFTISRDNAKNTVYLQMNSLKPEDTAVYYCAADYVGVTSVRYDYWGQGTQVTVSS	low polyreactivity
QVQLVESGGGLVQAGGSLRLSCPASGRTFQVYAMGWYRQAPGKERELVAGITRAGSTYYADSVKGRFTISRDNAKNTVYLQMISLKPEDTAVYYCAAGWKSSYYIWRYGSWGQGTQVTVSS	high polyreactivity
QVQLVESGGGLVQAGGSLRLSCPASGRTFVVYAMGWYRQAPGKEREFVAAITTRGNSTYYADSVKGRFTISRDNAKNTVYLQMNSLKPEDTAVYYCAAVLRLSTLTTDFGYWGQGTQVTVSS	high polyreactivity
QVQLVESGGGLVQAGGSLRLSCPASGRTFYGYPMGWYRQAPGKERELVAAISRRGGSTNYADSVKGRFTISRDHAKNTVYLQMNSRKPEDTAVYSCNANYYRTHYDYWGQGTQVTVSS	high polyreactivity
QVQLVESGGGLVQAGGSLRLSCPASGSIFSAYAMGWYRQAPGNEREFVAAITRRGGNTYYADSVKGRFTISRDNAKNTVYLQMNSLKPEDTAVYYCAAIRRQKGLWDYYYWGQGTQVTVSS	low polyreactivity
QVQLVESGGGLVQAGGSLRLSCPASGSIFWPNAMGWYRQAPGKERELVASINSGSGSTYYADSVKGRFTISRDNAKNTVYLQMNSLKPEDTAVYYCNAAGAYPYYSEDYYWGQGTQVTVSS	low polyreactivity
QVQLVESGGGLVQAGGSLRLSCPASGSIFYYYAMGWYRQEPGKERELVATITWNGAGTFYADSVKGRFTISRDNAKNTVYLQMNSLKPEDTAVYYCAASWYGESGYDYWGQGSQVTVSS	low polyreactivity
